Results from paper PMC2673036, “Ancient mtDNA Genetic Variants Modulate mtDNA Transcription and Replication”.

T1: TFAM (mitochondrial transcription factor A) (UniProt Q00059 43-246)
T1 sequence: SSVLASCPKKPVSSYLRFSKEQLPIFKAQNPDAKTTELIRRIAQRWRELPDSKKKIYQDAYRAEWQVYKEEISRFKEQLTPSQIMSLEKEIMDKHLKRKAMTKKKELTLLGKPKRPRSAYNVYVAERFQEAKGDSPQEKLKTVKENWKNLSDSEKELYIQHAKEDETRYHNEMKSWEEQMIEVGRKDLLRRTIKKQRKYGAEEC


What was measured:
[1] = target: T1, TFAM (mitochondrial transcription …); assay: EMSA; TFAM:probe 10:1 and 25:1; reference for normalization; 10 mM Tris-HCl pH 7.5, 10 mM KCl, 1 mM DTT, 1 mM EDTA, 6% glycerol; 3 nM probe, 30 or 75 nM TFAM; 30 min, room temperature; 5% native PAGE, 0.5x TBE; details: protein: recombinant; (PNK end label); blunt
[2] = target: T1, TFAM (mitochondrial transcription …); assay: EMSA; TFAM:probe 10:1 and 25:1; increased binding vs wt-295, exact value only in figure; 10 mM Tris-HCl pH 7.5, 10 mM KCl, 1 mM DTT, 1 mM EDTA, 6% glycerol; 3 nM probe, 30 or 75 nM TFAM; 30 min, room temperature; 5% native PAGE, 0.5x TBE; details: protein: recombinant; (PNK end label); blunt

| Binder | binding signal [1] | binding signal [2] |
| --- | --- | --- |
| wt-295 (CRS 276-303) (dsDNA) DNA 1: ACATCATAACAAAAAATTTCCACCAAAC DNA 2: GTTTGGTGGAAATTTTTTGTTATGATGT | 1 relative to wt-295 | – |
| C295T-VAR (haplogroup J, 276-303) (dsDNA) DNA 1: ACATCATAACAAAAAATTTTCACCAAAC DNA 2: GTTTGGTGAAAATTTTTTGTTATGATGT | – | > 1 relative to wt-295 |
